According to PMC4324353 (Journal of molecular biology, 2014):

B1: SC[gs]D (Spir SC and SD with Linker 3 replaced by five Gly-Ser repeats) (domain or fragment)
chain: KKDAHAMILEFIRSRPPLKKAGSGSGSGSGSPREQLMESIRKGKELKQITPPE
B2: SD3C (Spir SD and SC reversed around Linker 3) (domain or fragment)
chain: PREQLMESIRKGKELKQISDRQLGPPRMCEPSKKDAHAMILEFIRSRPPLKKA

Target: latrunculin B bound actin (A. castellani actin monomer) (A. castellani)
Experiment: fluorescence polarisation

| Binder | stoichiometry N |
| --- | --- |
| B1 | 1 actin monomer per construct |
| B2 | 1 actin monomer per construct |
